14 sequences from the DeepSol protein solubility set can be followed below.

This series is described as follows: soluble on expression in E. coli; label from the status in PepcDB or PDB records.
As for “MPKIISKRKFNILRKTKEEIFSQIVYTKKRNGLHKAAKEYYFKDKDFTIIEDQQDRPDKPEELDTPDIPKPPKPPKGPDQPEEPGQPGGPDDPNSGNKKMPKPDEFVTHRQLQEFKKDLLVELHEIFPTKPELKRVEEKVDVLFELQKAQGEQIRIQGEQIKELKVEQKAQGETLQLILQTLQKMNDRLDKIEGKMDKMESRMDKMETRLDKLESKLEHHHHHH”, the “soluble on expression in E. coli” value is reported as “not soluble”.
Turning to “MPKITVYTGKEVLQIDAKEGSSLLDILAENSLYVEAPCGGKGICGKCKVAVKKDGKPYLENITKEEKRLLTSDELQKGIRLCCNLKVFESLEVFLPHSKIGAKILSGLYTLEHHHHHH”, the “soluble on expression in E. coli” value is recorded as “not soluble”.
To “MPKSEPRYLTIYNQLKNQITSGTLTANEQLPTELQLAKAYNVSRITSKRALTELESQGLIYRKQGSGSFVQPTDQPKTNKQLLLVLPFPTDAGLGDYASGVSLAASAHHYQAVTMDSASFFNLSAKEIHENYAGVIYLPQDLYQEAERIYQLKLAQVPVVILDKTLPALELPVVTADNFSGGQIATDHLLQLGHQQILFYAQRNNTVLPSSVYERYFGYLTALNQQHVTPVTALADLPTLNQFSTNDWLTYLADHQITAIVVENDLTAIKLMNTLRKVDPKIWQRLSIVGFDNIQAASLTYPSLTTVAQDFKGMGTKAVSLLLKTPVQPTTVRLPVQLIQRDSTQPFQPISKEK” belongs “not soluble”; to “MPLKGFEIIKSMITLLFLYQAIIRNFEEIVQFLGKIMGCGSSSPAEVAPAEIIEPSPSSDVPSDPKIPTSYRPSIISLQIPNEFGDDVSSDALSDRSDAQEENVDYLYATDVTLQWLLERIYDKFKKPIPEDPQWIIERLNRPSWDLDYATSSVVRVTFGWDDDELPRSVVLKTPVAKDQRDDEEGKYHYIMFKRECNVYEWTQKFPKLIAPKIIHIKKHSKEGSGVVVMEDVSEKGQEQDPVKGLMLEVVRDLLKQIAYLHSISLKHTSWSTLVADLPPSYYAHTIGSFDDTLTFFERQDVDHSRFVHIGKYFSDEYLHSTATETTELLDIPKVLVHGEPYASNVFTKMEGKEQRILSLIDWTEGHSGCFAEDVAKIICWNLNAKERVDNTSSLLEGYHFHLARYYDGDCPFTVDIIQRAYEVFVPFAMVSLCGKVMSVKNKTEKEPLIERAKSLIQQVYAMERLNES”, “not soluble”.
To “MPLPFSIISTTSQDVLEDADSDEEAETFYVNWITEKNHSFPQSMVLELEEESLVSSVKLIVHKDYPPSSLTVSLGIPSNHFRNSRGKSYNADYSVRQELSFRDDFHVEYGQKHPKATVFFNSPAKFVRISVHGFSDSDVNHHRQVSILSVIISGAGEILPFDSHLKDEPKQTEMSYIELDKGILLPLKSKPKMRETKTIVGLYDTDSEDEEILFSKEMLNRLRKREAVMKNPQLPTTSAITETIAIDTSCEKSAPVSSSSSSKQQSSVSPPLSDRSKKQILDEILGIDEKGNKGKPRKEVYFGSRMSEFNNMLRLLERKREESIWEEKYAQASAIDESVKDLKSREAGLRELIIEREDALKGKDLIAAQR” belongs “not soluble”; to “MPLSDADYNDPDNEEVAFLSRGLLEACIEFIRETPAGDALRIVAYEFTFKRILLELKAALERGVDVRIVYHATTANEKAIADAKLPENSKGVQILFKRTRPQTPHNKFIVRLKKGKTPVSVWTGSTNFTPSGFLGQTNVGHKVTDGDIAKIYLQLWEGLKADPDDFDATQAAMALTPLEHHHHHH”, “soluble”; to “MPLSGEYAPSPLDWSREQADTYMKSGGTEGTQLQGKPVILLTTVGAKTGKLRKTPLMRVEHDGQYAIVASLGGAPKNPVWYHNVVKNPRVELQDGTVTGDYDAREVFGDEKAIWWQRAVAVWPDYASYQTKTDRQIPVFVLTPVRAGG”, “soluble”.
As for “MPMVRVATNLPNEKVPVDFEIRLTDLLARSMGKPRERIAVEIAAGARLVHGATHDPVTVISIKSIGAVSAEDNIRNTAAITEFCGKELGLPKDKVVITFHDLPPATVGFNGTTVAEANKK”, the entry is “not soluble”; as for “MPNIVLSRIDERLIHGQVGVQWVGFAGANLVLVANDEVAEDPVQQNLMEMVLAEGIAVRFWTLQKVIDNIHRAADRQKILLVCKTPADFLTLVKGGVPVNRINVGNMHYANGKQQIAKTVSVDAGDIAAFNDLKTAGVECFVQGVPTEPAVDLFKLL”, “soluble”; as for “MPNMGIEKLYVSQQLTDSAAGMTFTKPQYYKYVQELSLKPKVNSASAYAENRKVDQDTQFDSCDVSINLFQMTSSQRAFMLGQSLAGGGGAIGALNDKAPWITLLYKAPIKVDDTIYYRYGVIYKTQFQPPDDDYKTTEGKPDFSQVPKISGSAQPTEWSFKDGKLEKHPWEWHVDTCDPNCPENIDDTWFNSVSIPSLVTYGSLSLSASSPKDGATGISLDTKPSLTFNNPIMNATSILLYNVSDGATVNTTTSSDSSGKIITITPSTNLVANKNYVLVVQDVTDLYGQTLDTQLIRFTTATAASLEHHHHHH”, “soluble”.
With “MPPAKTKPKFPLCRLPSESVTNVLKIMKLSEIFNLSETSLKARSIVELAMQTIPSHLDLQGFPSKNYKLTVENDGQKVQVQFPHATDALTNFKQKLFRICKTFQIKTASVYFSCPVEAHIIELLGFIKKRKVQFQDFSIKGSVTEQNFKFFMTIGAQRFHLDMSETQPVTEVFALLKIQEVVLQNAAISSQMLNKVLKAWKTTSRLKKFRVIKNWKMDTSVVFQGLHVKQKSRSDTKKEYEIDLDGGGKATCCFKFEKGSSTNGFEFIVIN”, the “soluble on expression in E. coli” value is reported as “not soluble”.
To “MPPEMEGFLYLKSDGRKSWKKHYFVLRPSGLPPEMEGFLYLKSDGRKSWKKHYFVLRPSGLMYHDRRRTGFRQYETYMKQKQSADWQLDELLEELEALETQLNSSNGGDQLLLGVSGIPASSSRENVKSISTLPPPPPALSYHQTPQQPQLLHHHNNHLGYQNGIHQITSINSAASSCSSPDGDSAFGDSSSTESSNNRCRNSAFSSNDSCRDSLNTPSPTQVSPRNGELNAEEAKAQKIRQALEKMKEAKVTKIFVKFFVEDGEALQLLIDERWTVADTLKQLAEKNHIALMEDHCIVEEYPELYIKRVYEDHEKVVENIQMWVQDSPNKLYFMRRPDKYAFISRPELYLLTPKTSDHMEIPSGDQWTIDVKQKFVSEYFHREPVVYYAPKSKKPTTKDLTCLMNLHSNQVYTGIGWEKKYKSPTPWCISIKLTALQMKRSQFIKYICAEDEMTFKKWLVALRIAKNGAELLENYERACQIRRETLGPASSMSAASSSTAISEVPHSLSHHQRTPSVASSIQLSSHMMNNPTHPLSVNVRNQSPASFSVNSCQQSHPSRTSAKLEIQYDEQPTGTIKRAPLDVLRRVSRASTSSPTIPQEESDSDEEFPAPPPVASVMRMPPPVTPPKPCTPLTSKKAPPPPPKRSDTTKLQSASPMAPAKNDLEAALARRREKMATMEC” belongs “not soluble”; to “MPPMHLLKSKVHIAEALNDETTMSLLKKIVSKKCISKISQWKNELSSNLDG”, “not soluble”; to “MPPVYSQPELSISIAGLRLQRPVGNASGILGWEPREARLVEEGGGGFFVAKSVTYQPRKGYPQPHLYPVAGGIVNAVGLANPGFREASKMLAQTVEEASIPVIASIAGGAPGEWVEMASTLEEAGVSAVELNLSCPHFAGGGLELGQDPAAVASVVSAVASTLRIPVIAKLGYSDRLVDAASKALEAGARGLTLINSMRAMKIDVYAKKPVLGNRVGGLSGKPIHPIAVRAVYEVYGETRADIFAAGGVESWEDAVEFYLAGAKAVQVGAAFITIGPHVLRSIVEGVRRYLWVEGFRSLQDIVGYAHRA”, “soluble”.
